PMC10345191

How the values were obtained:
Experiment in all cases: cryo-EM structure
[1] = target: EDC cross-linked ConM SOSIP soluble gp140 Env trimer (GMP) (HIV-1 (group M consensus))
[2] = target: ConSOSL.UFO soluble gp140 Env trimer, unmodified (GMP) (HIV-1 (group M consensus))
[3] = target: ConM SOSIP soluble gp140 Env trimer, unmodified (GMP) (HIV-1 (group M consensus))
[4] = target: EDC cross-linked ConSOSL.UFO soluble gp140 Env trimer (GMP) (HIV-1 (group M consensus))

EDC cross-linked ConM SOSIP soluble gp140 Env trimer (GMP) (complex)
stoichiometry N [1]: 3

ConSOSL.UFO soluble gp140 Env trimer, unmodified (GMP) (complex)
stoichiometry N [2]: 3

ConM SOSIP soluble gp140 Env trimer, unmodified (GMP) (complex)
stoichiometry N [3]: 3

EDC cross-linked ConSOSL.UFO soluble gp140 Env trimer (GMP) (complex)
stoichiometry N [4]: 3
